Reference: US20260258149A1 (BIONTECH, published 2026)
Numbering of substitutions follows the chain as printed. “And” between values parts separate entries of the source, which are not always exact repeats. Equal entries are not always repeated.

B1: humanized anti-STn antibody clone V1 (antibody, V domains shown)
VH: QVQLQESGPGLVKPSQTLSLTCTVIGYSITSGYYWNWIRQPPGKGLEWIGSINYDGSNIYNPSLKSRVTISRDTSKNQFSLKLSSVTAADTAVYYCARGGDYWGQGTTVTVSS
VL: EIVLTQSPATLSLSPGERATLSCSASSSVSYMHWFQQKPGQAPRRWIYDTSKRATGVPARFSGSGSGTDYTLTISSLEPEDFAAYYCQQWSSDPPMLTFGGGTKLEIK
notes: Humanized variant of L2A5; Variable domains were cloned into Absolute Antibody vectors 'of the appropriate species and type' and expressed in HEK 293; also called CBS-V1
B2: humanized anti-STn antibody clone V2 (antibody, V domains shown)
VH: B1 VH with T23S, S66D
VL: B1 VL with E1D, T10I, P39S, R44K, R53L, T55S, P79A
notes: Humanized variant of L2A5; also called CBS-V2
B3: humanized anti-STn antibody clone V3 (antibody, V domains shown)
VH: B1 VH with T23S, S66D
VL: B1 VL
notes: Humanized variant of L2A5

Assays:
[1] = target: T1, Bovine Submaxillary Mucin (BSM) (bovine); test: ELISA on BSM-coated wells (3 ug/mL), normalised dose response
T1 construct: Glycoprotein carrier of STn; also called BSM mucin; non-biotinylated BSM
Method: (§1) In order to evaluate the antibody binding to the target antigen STn, we employed an in vitro assay using a mucin that naturally expresses STn: Bovine Submaxillary Mucin (BSM). The humanized variants (V1, V2 and V3) were incubated using BSM-coated wells and binding was evaluated using ELISA assay.
(§2) An ELISA-assay was performed using Bovine Submaxillary Mucin (BSM). 96 well plates were coated using BSM [3 ug/mL], dissolved in 1×PBS. Absorbance was detected using a microplate reader at 450 nm. Absorbance values were normalized against the background and plotted as a % of the dose response effect versus the antibody dose (log scale) as shown in the graph. The EC50 (in ug/mL) was calculated for each condition.

[2] = target: T1, Bovine Submaxillary Mucin (BSM); test: ELISA on BSM, OD against antibody concentration
[3] = target: T1, Bovine Submaxillary Mucin (BSM); test: ELISA on BSM-coated wells
Method: as §1, §2

| Binder | EC50 [1] | EC50 (read off the curve) [2] | fold decrease in EC50 compared to V1 and V3 clones [3] |
| --- | --- | --- | --- |
| B1 | 0.324 µg/mL and 0.457 µg/mL | ~0.2 µg/mL |  |
| B2 | 0.0665 µg/mL and 0.137 µg/mL |  | 3 fold |
| B3 | 0.344 µg/mL and 0.449 µg/mL |  |  |
